Measurements reported in patent US10526416B2, “Anti-HER3 antibodies and uses of same” (Yeda Research and Development Co. Ltd., priority 2014, dated 2020).

B1: NG83: anti-HER3 mAb; light chain CDRs SEQ ID NOs: 7-9, heavy chain CDRs 10-12 (antibody, V domains shown)
VH: QIQLVQSGPELKKRGETVKISCKASGYTFTNYGMNWVRQAPGKGLKCMGWINTYAGEPTYADDFKGRFAFSLDSSASTAYLQINNLKNEDMATYFCARGGITGAMDYWGQGTSVTVSS
VL: DVVMTQKTSSLSTSLGDRVTISCRASQDIRNYLNWYQQKPDGTVKLLIYYTSRLHSGVPSRFSGSGSGTDYSLTISDLEQEDIATYFCQQGNTLPWTFGGGTKLAIK
modifications: VH chain of NG83 polypeptide; VL chain of NG83 polypeptide
B2: XC252: anti-HER3 mAb generated as described in Chen X, et al. (1996); heavy and light chain SEQ ID NOs: 49 and 53 (antibody, V domains shown)
VH: EVQLQQSGAELVRPGVSVKISCKGSGYTFTDYAMHWVKQSHAKSLEWIGVISTYYGDPRDNQKFKGKATMTVDKSSSTAYMELARLTSEDSAIYYCARGDYDWYAIDYWGQGTSVTVSS
VL: DVVMTQTPLSLPVSLGDQASISCRSSQSIVHSDGNTYLEWYLQKPGQSPKLLIYKVSNRFSGVPDRFSGSGSGTDFTLKISRVEAEDLGVYYCFQGSHVPPTFGGGTKLEIK
modifications: VH chain of XC252 polypeptide; VL chain of XC252 polypeptide

Tests used:
denatured form of HER3 = denatured form of HER3 (Homo sapiens, UniProt P21860); experiment: Western blot detection of HER3 in T47D cell lysate (mAb as primary Ab); type: binding
Sequence of denatured form of HER3 (P21860 20-1342): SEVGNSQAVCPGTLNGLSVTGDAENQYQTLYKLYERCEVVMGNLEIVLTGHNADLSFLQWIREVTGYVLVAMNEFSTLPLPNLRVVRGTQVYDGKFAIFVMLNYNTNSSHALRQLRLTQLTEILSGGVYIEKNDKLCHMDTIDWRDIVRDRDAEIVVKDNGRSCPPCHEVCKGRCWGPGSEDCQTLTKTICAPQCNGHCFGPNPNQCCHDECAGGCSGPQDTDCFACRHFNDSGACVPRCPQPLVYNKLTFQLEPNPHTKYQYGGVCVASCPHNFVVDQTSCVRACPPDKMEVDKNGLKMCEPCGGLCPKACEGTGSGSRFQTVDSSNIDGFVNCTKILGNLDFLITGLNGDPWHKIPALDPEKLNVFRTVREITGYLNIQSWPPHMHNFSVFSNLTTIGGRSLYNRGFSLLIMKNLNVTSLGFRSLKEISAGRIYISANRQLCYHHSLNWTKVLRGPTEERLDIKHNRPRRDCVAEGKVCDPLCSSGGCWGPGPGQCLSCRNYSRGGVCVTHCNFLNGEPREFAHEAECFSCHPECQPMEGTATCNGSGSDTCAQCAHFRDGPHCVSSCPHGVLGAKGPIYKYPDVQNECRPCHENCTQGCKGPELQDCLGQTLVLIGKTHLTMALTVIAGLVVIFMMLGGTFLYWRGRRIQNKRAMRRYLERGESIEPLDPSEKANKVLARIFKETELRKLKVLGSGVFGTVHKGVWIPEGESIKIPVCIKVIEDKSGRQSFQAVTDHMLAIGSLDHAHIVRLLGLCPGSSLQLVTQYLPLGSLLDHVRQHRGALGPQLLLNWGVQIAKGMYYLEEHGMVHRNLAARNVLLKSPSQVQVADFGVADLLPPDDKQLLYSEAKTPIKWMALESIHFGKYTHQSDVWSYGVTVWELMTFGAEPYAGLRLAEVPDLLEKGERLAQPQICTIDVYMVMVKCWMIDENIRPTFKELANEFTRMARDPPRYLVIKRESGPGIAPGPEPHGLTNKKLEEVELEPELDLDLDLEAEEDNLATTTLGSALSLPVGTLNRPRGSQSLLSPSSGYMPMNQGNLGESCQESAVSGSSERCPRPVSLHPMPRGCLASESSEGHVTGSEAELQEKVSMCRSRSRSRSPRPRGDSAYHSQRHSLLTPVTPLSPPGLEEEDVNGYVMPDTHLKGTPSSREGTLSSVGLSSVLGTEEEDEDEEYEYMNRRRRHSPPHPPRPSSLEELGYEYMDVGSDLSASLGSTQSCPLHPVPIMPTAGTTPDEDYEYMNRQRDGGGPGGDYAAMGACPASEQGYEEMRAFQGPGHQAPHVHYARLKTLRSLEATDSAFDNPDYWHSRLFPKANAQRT
Procedure: FIGS. 1A-E show hybridoma Screening and mAb Isotyping. (FIG. 1A) Mice were immunized with recombinant IgB3. (FIG. 1B) The hybridoma supernatant screening using ELISA, was performed on 96 well-plate coated with IgB3 (1 μg/ml) or with a human IgG. The plates were blocked with PBS-1% BSA and incubated for 1 h with hybridoma supernatants, followed by a second incubation for 1 h with HRP-labeled anti-mouse IgG and subsequently detected by 2,2′-azino-bis (3-ethylbenzothiazoline-6-sulfonic acid) addition. The OD at 415 nm was then measured using an ELISA microplate reader. (FIG. 1C) The second step of the screening was performed by immunoprecipitation (IP). Anti-mouse IgG beads were incubated first with the hybridoma supernatant and subsequently with total cell lysate from HER3-expressing T47D cells. (FIG. 1D) The mAbs directed to HER3 were isotyped using ELISA. […] (FIG. 1E) Finally the ability of the mAbs to detect HER3, used as primary Ab in a Western Blot experiment, was determined on cell lysate from T47D cells.
Cells were grown under specified conditions or treated as indicated. […] Antibody binding to membrane blots was detected using horseradish peroxidase-secondary antibodies (Jackson ImmunoResearch Laboratories), followed by treatment with ECL Western blotting detection reagents (GE Healthcare). […]

[1] = test system: phosphorylation of HER3, AKT and ERK; experiment: NRG-induced phosphorylation of HER3, AKT and ERK in N87 cells (immunoblotting); type: cell-based, human; details: mAb 10 μg/ml 20 min, then NRG 20 ng/ml
Procedure: (FIG. 9A) The indicated mAbs were checked for their capacity to compete with fluorescent dye labeled NRG. […] After washes, the labeled-NRG was added and incubated for 30 min at 4° C. Fluorescence intensity at 670 nm was determined following 3 final washes. (FIG. 9B) The ability of the mAbs to avoid NRG-induced phosphorylation of HER3, AKT and ERK, was studied with N87 cells. After 20 min treatment with the indicated mAbs (10 μg/ml) at 37° C., NRG (20 ng/ml) was added to the cells for 10 min. The cells were then lysed, and equal quantities of protein lysates were run on 9% bisacrylamide gel before immunoblotting with the indicated primary antibodies. (FIG. 9C) The capacity of mAb NG33 to avoid NRG-induced migration was checked with OVCAR-5 cells and the quantification reported in a histogram. […] Signals of triplicates were quantified. **** […] (ANOVA and post hoc tests).
FIGS. 12A-D show a combination of two mAbs directed to two different epitopes of HER3. […] After ah incubation, the plate was washed 4 times with KREBS buffer, and the fluorescence intensity at 610 nm was measured using a fluorescence microplate reader. […] (FIG. 12D) The combination's capacity to modulate NRG-induced phosphorylation of HER3, AKT and ERK was evaluated using N87 cells. […] The cells were then lysed, and equal quantities of lysate protein were electrophoresed before immunoblotting, as indicated. […]

| Molecule | recognition of HER3 in western blotting (denatured form of HER3) | effect on NRG-induced HER3 phosphorylation and AKT and ERK activation [1] |
| --- | --- | --- |
| B1 | able to recognize the denatured form of HER3 | – |
| B2 | – | partly decrease the phosphorylation level of HER3 |
